The supplement of paper PMC10567573

Test: protein stability index of a GFP-peptide fusion (GPS, HEK-293T) (PSI 1-6); higher = more stable
Conditions: c terminus: native
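Also: lentivirally expressed fusion library, cells FACS-sorted into six equal-sized GFP/DsRed ratio bins, PSI computed from sequencing read fractions per bin weighted by bin number.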

Q: With DGWIRVSSDNVADLHEKYSGSTPY [PSMB5 addY] as the protein, how does the protein stability index (parent: NP_002788.1) read?
A: 3.43

Q: Which protein stability index (parent: NP_006221.1) does the source give for CQPISFSGFGAEDDDLGGLGLGPY [POLD2 addY] here?
A: 2.32

Q: Which protein stability index (parent: NP_009172.2) does the source give for LPALFTDLYSQEITAEEAREALPY [SNF8 addY] here?
A: 4.33

Q: Which protein stability index (parent: NP_015628.1) does the source give for EQRNSRWNTVLRAVKAKTHHLEPY [TRPA1 addY] here?
A: 4.2

Q: For HSLRAVSTDPPHHDHHDEFCLMPY [BEX2 addY], which protein stability index (parent: NP_116010.1) is on record?
A: 3.52
